B1: Pyruvate dehydrogenase protein X component, mitochondrial, residues 181 to 227; numbered along this chain, O00330 (parent)
chain: RFRLSPAARNILEKHSLDASQGTATGPRGIFTKEDALKLVQLKQTGK

Variants of: B1
Experiment: abundance fitness (aPCA) (normalised: wild type 0, dead -1); higher = more abundant; growth selection in yeast, the domain comes from the species named
Conditions: Homo sapiens

Abundance fitness of substitutions, site by site:
I30: Y -0.292 | N -0.268 | H -0.359 | Q -0.178 | A -0.105 | R -0.413 | L 0.116 | V -0.263 | G -0.271 | D -0.087 | P -0.363 | S -0.145 | W -0.229 | C -0.234 | F -0.152 | T 0.068 | E 0.092 | M 0.137
T32: E -0.447 | W -0.716 | A -0.462 | P -0.492 | M -0.947 | K -0.517 | Y -1.12 | H -0.389 | N -0.733 | C -0.519 | I -0.965 | L -0.553 | Q -0.376 | V -0.637 | R -0.698 | G -0.482 | D -0.612
A36: I -0.947 | R -0.723 | M -0.41 | K -0.563 | H -0.562 | D -0.262 | P -0.908 | T -0.669 | G -0.513 | C -0.339 | V -0.823 | S -0.512 | W -1.02 | E -0.317 | L -0.756 | N -0.428
G29: D -0.101 | V -0.807 | N -0.395 | P -0.569 | H -0.773 | T -0.788 | W -0.892 | R -0.526 | C -0.706 | S -0.435 | Q -0.418 | Y -1.01 | M -0.447 | E -0.226 | L -0.609 | F -1.05 | I -0.349
T25: G -0.445 | E -0.765 | R -0.563 | Q -0.522 | K -0.414 | F -0.697 | H -0.58 | A -0.566 | M -0.423 | W -1.06 | Y -0.86 | L -0.519 | C -0.423 | V -0.476 | I -0.668 | D -0.582 | P -0.559
L39: K -0.545 | M -0.089 | R -0.484 | N 0.065 | T -0.505 | E -0.28 | C -0.694 | D -0.121 | G -0.222 | Y -0.874 | A -0.319 | P -0.348 | F -0.746 | V -0.315 | H -0.271 | S -0.127 | W -0.731 | Q -0.619
Q41: I -0.648 | P -0.2 | M -0.181 | G -0.227 | R 0.214 | W -0.395 | N -0.159 | L -0.353 | H -0.452 | S 0.2 | V -0.287 | D -0.085 | C -0.855 | Y -0.639 | E 0.193
R28: N 0.285 | L -0.161 | E 0.06 | V -0.456 | I -0.936 | A -0.119 | S -0.146 | Y -0.03 | T -0.281 | F -0.085 | W -0.255 | H -0.202 | D 0.259 | P -0.408 | C -0.072 | M -0.071 | K 0.033 | Q -0.314
G26: N -0.505 | E -0.539 | A -0.603 | Y -0.8 | C -0.903 | P -0.55 | L -0.516 | H -0.46 | F -0.642 | Q -0.483 | V -0.489 | W -0.874 | D -0.444 | S -0.608 | M -0.435 | K -0.571
D35: R -0.847 | A -0.637 | Y -0.865 | Q -0.818 | T -0.936 | G -0.565 | L -0.76 | C -1.06 | F -1.25 | I -0.956 | E -0.439 | V -1 | K -0.828 | W -0.814 | N -0.926
L37: I -0.369 | S -0.286 | M -0.183 | K -0.088 | V -0.165 | D 0.035 | E 0.278 | W -0.293 | T -0.072 | H -0.544 | G -0.233 | A -0.55 | R -0.377 | Y -0.383 | P -0.541 | Q -0.545 | C -0.388 | F -0.402
P27: N -0.426 | Y -0.689 | Q -0.221 | R -0.363 | V -0.515 | F -0.655 | C -0.323 | K -0.146 | W -0.682 | T -0.167 | S -0.213 | G -0.491 | H -0.309 | E -0.131 | I -0.547 | L -0.599 | D -0.022
L42: M -0.09 | S -0.247 | W -0.251 | F -0.535 | Y -0.058 | T -0.198 | E 0.096 | A 0.131 | Q 0.115 | V -0.001 | C 0.013 | K 0.221 | N -0.288 | D 0.085 | H -0.618 | R -0.094 | I -0.291 | G -0.183 | P -0.347
A24: E -0.333 | Q -0.597 | H -0.454 | V -0.476 | L -0.532 | D -0.661 | Y -1.07 | N -0.31 | P -0.191 | S -0.271 | K -0.638 | G -0.331 | F -0.667 | T -0.423 | C -0.473
K43: D -0.227 | C -0.267 | E -0.395 | F -0.305 | A -0.083
F31: T -0.171 | K -0.423 | H -0.222 | L -0.412 | E -0.087 | A -0.451 | R -0.455 | C -0.236 | M -0.38 | S -0.306 | V -0.349 | G -0.195 | P -0.206 | Y -0.335 | Q -0.424 | N -0.084 | W -0.675
K33: I 0.047 | F -0.623 | Y -0.401 | P -0.607 | M -0.325 | C -0.417 | H -0.039 | Q 0.036 | D -0.279 | T -0.04 | W -0.762 | A -0.113 | N -0.462 | S -0.305 | G -0.331 | L -0.379 | V -0.291 | E 0.079
T23: R -0.237 | Q -0.24 | L -0.258 | N -0.195 | Y -0.309 | V 0.006 | W -0.424 | P -0.442 | K -0.062 | M -0.231 | S -0.138
K38: N -0.258 | D -0.577 | M -0.251 | V -0.391 | L -0.775 | A -0.105 | H -0.149 | C -0.453 | S 0.007 | P -0.33 | F -0.781 | R 0.042 | T -0.643 | I -0.604 | G -0.354 | W -0.951
E34: V -0.515 | G -0.323 | C -0.437 | T -0.299 | D -0.058 | Q 0.054 | N -0.811 | F -0.388 | R -0.329 | P -0.714 | W -0.334 | H -0.095 | A -0.155 | S -0.178 | I -0.615 | L -0.443 | M -0.536
V40: C -0.183 | R -0.439 | Q -0.252 | A -0.338 | H -1.01 | Y -0.295 | F -0.592 | P -0.314 | T -0.706 | D -0.195 | G -0.545 | I -0.411 | S -0.381 | K -0.099
